Where a chain is given by its changes, count along the chain named. Names may count otherwise.
B1: EGFP-Smad2 WT: mouse EGFP-Smad2 wild type transfected into HeLa cells (protein, UniProt Q62432 2-467, looked up)
Mothers against …: SSILPFTPPVVKRLLGWKKSAGGSGGAGGGEQNGQEEKWCEKAVKSLVKKLKKTGRLDELEKAITTQNCNTKCVTIPSTCSEIWGLSTANTVDQWDTTGLYSFSEQTRSLDGRLQVSHRKGLPHVIYCRLWRWPDLHSHHELKAIENCEYAFNLKKDEVCVNPYHYQRVETPVLPPVLVPRHTEILTELPPLDDYTHSIPENTNFPAGIEPQSNYIPETPPPGYISEDGETSDQQLNQSMDTGSPAELSPTTLSPVNHSLDLQPVTYSEPAFWCSIAYYELNQRVGETFHASQPSLTVDGFTDPSNSERFCLGLLSNVNRNATVEMTRRHIGRGVRLYYIGGEVFAECLSDSAIFVQSPNCNQRYGWHPATVCKIPPGCNLKIFNNQEFAALLAQSVNQGFEAVYQLTRMCTIRMSFVKGWGAEYRRQTVTSTPCWIELHLNGPLQWLDKVLTQMGSPSVRCSSMS
modifications: EGFP fusion
notes: mouse EGFP-Smad2 wild type transfected into HeLa cells
B2: Smad2-W422A: W422A mutant of full-length Smad2; specific PI(4,5)P2 binding-compromised (protein)
chain: MSSILPFTPPVVKRLLGWKKSAGGSGGAGGGEQNGQEEKWCEKAVKSLVKKLKKTGRLDELEKAITTQNCNTKCVTIPSTCSEIWGLSTANTVDQWDTTGLYSFSEQTRSLDGRLQVSHRKGLPHVIYCRLWRWPDLHSHHELKAIENCEYAFNLKKDEVCVNPYHYQRVETPVLPPVLVPRHTEILTELPPLDDYTHSIPENTNFPAGIEPQSNYIPETPPPGYISEDGETSDQQLNQSMDTGSPAELSPTTLSPVNHSLDLQPVTYSEPAFWCSIAYYELNQRVGETFHASQPSLTVDGFTDPSNSERFCLGLLSNVNRNATVEMTRRHIGRGVRLYYIGGEVFAECLSDSAIFVQSPNCNQRYGWHPATVCKIPPGCNLKIFNNQEFAALLAQSVNQGFEAVYQLTRMCTIRMSFVKGAGAEYRRQTVTSTPCWIELHLNGPLQWLDKVLTQMGSPSVRCSSMS
modifications: left off: His6, N-terminal, state not stated
B3: Smad2-E425K: charge-reversal mutant of full-length Smad2; PI(4,5)P2 and TβRI binding-enhanced (protein)
chain: B2 chain with A422W, E425K
modifications: left off: His6, N-terminal, state not stated
B4: Smad2-Y426A: Y426A mutant of full-length Smad2; specific PI(4,5)P2 binding-compromised (protein)
chain: B2 chain with A422W, Y426A
modifications: left off: His6, N-terminal, state not stated
B5: Smad2 WT: bacterially expressed full-length Smad2 wild-type (protein)
chain: B2 chain with A422W
modifications: left off: His6, N-terminal, state not stated
notes: bacterially expressed full-length Smad2 wild-type
B6: Smad2- R427A/R428A: double mutant of full-length Smad2; PI(4,5)P2 and TβRI binding-compromised (protein)
chain: B2 chain with A422W, R427A, R428A
modifications: left off: His6, N-terminal, state not stated
B7: Smad2-K420A: K420A mutant of full-length Smad2; predominantly TβRI binding-compromised (protein)
chain: B2 chain with K420A, A422W
modifications: left off: His6, N-terminal, state not stated

Tested on: HeLa cells
Test: Smad2 phosphorylation (pS465/pS467), Western blot
Type: cell-based
Settings: for Smad2 phosphorylation after TGF-β stimulation: Smad2-depleted HeLa cells, 10 ng/ml TGF-β, 48 h
Method: Two separate gels were used to accommodate all mutants. An empty vector transfection (vehicle) was used for a negative control for each gel. Glyceraldehyde 3-phosphate dehydrogenase (GAPDH) was used as a gel loading control. Data in A and B are quantified in Fig. S3A. C, TGF-β stimulated (10 ng/ml for 1 h) nuclear translocation of mouse EGFP-WT, -K420A, -W422A, -E425K, -Y426A, and -R427A/R428A transfected into HeLa cells whose endogenous Smad2 was suppressed by siRNA. For Smad2-WT, the effect of PI(4,5)P2 depletion was measured. Arrows indicate nuclear accumulation of EGFP-WT and EGFP-E425K. Scale bars indicate 10 μm. D, quantification of (C). (Inuc/Icyto) was calculated from total nuclear and cytosolic fluorescence intensity values. Blank and black bars indicate values before and after TGF-β stimulation. Error bars indicate S.D. values from >3 measurements (n = 10). E, Smad2 transcriptional activity measured by the luciferase assay. Blank and black bars indicate values before and after TGF-β stimulation. Error bars indicate S.D. values from >3 measurements (n = 10).
HeLa cells were plated on 6-well or 48-well plates at the density of ∼1.5 × 10^5 or 1.25 × 10^4 for 24 h and 30 nM human Smad2 (or SARA) DsiRNAs (IDT: see sequences below) were transfected into cells using the jetPRIME system (Polyplus transfection) according to the manufacturer's protocols. After transfection with siRNA for 24 h, the medium was exchanged with a fresh one and cells were transfected again with 1 μg/ml of the mouse Smad2 expression vector. In total, 24 to 48 h after transfection, cells were used for further treatment or Western blot analysis. The sequences of DsiRNAs are as follows: SMAD2-siRNA1 (sense: 5′-[…]-3′; antisense: 5′-[…]-3′); SMAD2-siRNA2 (sense: 5′-[…]-3′; antisense: 5′-[…]-3′); SMAD2-siRNA3 (sense: 5′-[…]-3′; antisense: 5′-[…]-3′); SARA-siRNA1 (sense: 5′-[…]-3′; antisense: 5′-[…]-3′); SARA-siRNA2 (sense: 5′-[…]-3′; antisense: 5′-[…]-3′).
Transfected cells or treated cells were lysed in the cell lysis buffer (20 mM Tris-HCl, pH 7.5, containing 150 mM NaCl, 1 mM Na2EDTA, 1 mM EGTA, 1% Triton-X, protease inhibitors, and phosphatase inhibitors) (1 mM Na3VO4, 1 mM NaF, 1 μg/ml leupeptin, 1 mM phenylmethanesulfonylfluoride, 1.5 mM benzamidine, and 2 μg/ml pepstatin). The total protein concentration of the cell lysate was determined by the Pierce BCA protein assay kit (Thermo scientific). The same amounts of proteins were loaded onto a polyacrylamide gel to run sodium dodecyl sulfate–polyacrylamide gel electrophoresis. Proteins were separated and transferred to a polyvinylidene difluoride membrane. The membrane was blocked with 5% bovine serum albumin for 1 h and incubated overnight at 4 °C with various antibodies (1:1000 dilution for all antibodies). After the unbound antibodies were removed by washing with 0.1% Tris buffer saline with 0.1% Tween20, the membranes were incubated with the horseradish peroxidase secondary antibody (1:5000 dilution) for 1 h at room temperature. The membranes were washed three more times with 0.1% Tris buffer saline with 0.1% Tween20 to remove the unbound horseradish peroxidase secondary antibody before imaging. The chemiluminescence intensity of protein bands in the gel was analyzed and documented by the Azure 500Q Imaging System.

Molecule | Smad2 phosphorylation after TGF-β stimulation | Smad2 phosphorylation after PI(4,5)P2 depletion (HeLa cells, PI(4,5)P2 depletion)
B1 | fully restored after TGF-β stimulation | 
B2 | minimally phosphorylated | 
B3 | phosphorylated to a larger extent than WT | 
B4 | minimally phosphorylated | 
B5 |  | greatly suppressed Smad2 phosphorylation
B6 | minimally phosphorylated | 
B7 | little phosphorylation after TGF-β stimulation | 

From PMC8567202, “Phosphoinositide-binding activity of Smad2 is essential for its function in TGF-β signaling” (The Journal of Biological Chemistry, 2021)
